The DeepSol protein solubility set

test: soluble on expression in E. coli; label from the status in PepcDB or PDB records

Row | Sequence | soluble on expression in E. coli
1 | MMKIAIIGSGISGLTCGYYLHRYHDITLFEANDYIGGHTATVDVELAGKPYAVDTGFIVYNDRTYPNFIKMMDEIGVQGKPTQMSFSVRNDANGLEYNGHTLTTLFAQKRNWLNPKFYRFIAEILRFNRLTKACVDNQLANEQTLGDFLAQHQFSEYFCENYILPMGAAIWSSSLADMRAFPLMFFARFFLNHGLLDVTNRPQWYVIPGGSRSYIAPLTQGFGDRIRLNSAVTQVKRLPSGVEVVVNGRSERFDEVIFACHSDQALAMLSDASSTEQQLLSALAYQANEVVLHTDTRLLPKRKAAWAAWNYWLKGEANQETRLPSLTYNMNILQHIEAPETFCVTLNSSEDIDPSKILRRFTYHHPVFSRPAIEAQQKKAQISGVNHTWFCGAYWHNGFHEDGVRSALDVVTQLEAYAQRSEQGAALEHHHHHH | soluble
2 | MGSDKIHHHHHHVGEHGNVNLRAENCRLKGKDIIVLYRDELDLSSEQWLELLQDNTVFKDEDILLVLELYKCNNCREYASVLADSLGVASHSVLNLQIGRLGKRIIARYPDIKYPTREDGVVRYWHIPFWGEDGEKKGHYYWQLRPELKEALKMLKSNQKRKIFALHGEVQLAQEVDEEQTEKLYEGAKIQIVVNAYERNIKARQICIDKYGYKCSICDFDFEEFYGMLGSDYIEVHHLIPLHEINKEYRVDPINDLRPVCPNCHAMLHRAGISYEELKNKIESEC | not soluble
3 | MAKAAKRFRTPSTTRVLYVRHAHAHGRQTWGGDDNKRPLDKKGRRQAEMLVPMLLPFKPTAIYSAVPDRCQATALPLADELGLDVSVNRLFGDDAWETDPEACKKRFTDVVAQGGVPMIVGQGDIIPEMIKWFSENGTLPIDEKIKAKKGSVWVLSFHDGVFTGADYLEHHHHHH | not soluble
4 | MAHHHHHHMGYLLEREQQRYSRHESAESATAFFASRGQTIDILGRTDPNQIKGNFFGLELYQDAMKVVMQRYTPEKRLTSADLWQPNALGDAPPPRHTLHRKLDDFLYLIVQEGATGKWTIPHTARKDDESLRMTADRAISSQNSEGLDCYVWSNAPQATVFLKDDNTRLFIYAATYLAGRPQFASFEPKPKDHAWVTRHELLQYSDTFKSAELLKALLDISADGTFEA | not soluble
5 | MGSDKIHHHHHHMGEMVELKKELLRDVDLAERLLGRERPVKSEIEIRGKITRSTIEEISRIKKEPEWMKRLRLRSLELFYKLPTPKWLVGIDVIDLDEMIVYSKPETERASSWEELPKEIREFYERLGLPEIEARFLSGLSAVFDSETVYARVKKYLEEKGVIVMPIEEAVQKYPDLVKRYFMRVFPPSDHKFAALHGALWSGGTFIYVPRGVKIREPIESFFLIGKSGEGQFEHSLIVADEGAYVEWIEGCSAPRLTKFSFHDGMVEAYAHRNATIKIITVQNWSKDVINLNNKRAIAEEGARVDWVEGSIGSKMTFVYPSTILKGDNSSSRSAVVTIAKGPYLKDSGSKMIHVGRNTRSQVINKTISADGGINVYRGIIRIVKGARNAVANVECESLILDDKSKAHTYPHNQVDEPTASVNHEATTGRLTEPQLFYLTSRGLTEEEAKSLIVLGFLEDVLKELPFEYANVLTKVVRLEFSEYGAFG | not soluble
6 | MRGKRVVLPDKDHQACGLFGVIDRSGRRFSGEMAINAMINMKVRGNGLGGGFAAYGIYPEYKDYYALHVMFQDWDMEAKHRVDEFLDANFDVVYAEEIPVNPEANVASPPLFWRYFVSPNKKGDEKKLSDDDYVVKKVMEINTKINNAYVVSSGKDMGVFKGVGFPEDIAEYFMLAEEYKGYMWTAHSRFPTNTPGWWGGAHPFCILDWTVVHNGEISSYGTNKRYLEMFGYYCTLLTDTEVMAYAVDLLMRKQGLPIEIVSKIFAPPMWDHIDIMDEKKKKFYTALRMNYGPLLINGPWTIVVARHGEMFGITDRIRLRPITSGEKGDLLFVSSEESAIRAVCPDLDRVYTPMGGEPVIGRLKSREKELAKQLSEVE | not soluble
7 | MGSDKIHHHHHHMNFIEQISENNQFPIIFVGSGITQRYFENAPTWEKLLKDIWLELFDEESYYAKAFELRERFENNDFDIYTNLASLLEKEVSKAFINGNIQVDNLDLKTAYELNISPFKQLVANRFSNLKIREEKIEEIKQFSQMLSKARIIITTNYDNFIEECLKTINVSVKINVGNKGLFLKSSDYGELYKIHGTVDDASTITITKEDYEKNVTKSALINAKILSNLVESPILFLGYSLTDENIRKLLTDFAENSPFDISESAQKIGVVEYLPDSESIETVVSSLPDLSVYYSCLKTDNFTNIYRLISKINQGFLPSEIAKYENVFRKIIEVKGESKDLKTVLTSYEDLANLTEDEIRSKNIVVAFGDERYIYKFPDFKEYVRSYFLDKETIPQEIVIRFIATQPVASHLPIKKYMFAMSEYISKDSNKYTENIKKRLSKEEELSLDDFTSSIGVPLLHSKTLERQTEIVGILEADVPDNVRYNFIATHIKNFPKEELFLLVEKIIDEGIFETSRRRFLKAFDLLHY | not soluble
